Reference: US9127249B2, “Method for preparing metabolites of atorvastatin using bacterial cytochrome P450 and composition therefor” (INDUSTRY FOUNDATION OF CHONNAM NATIONAL UNIVERSITY, priority 2011, dated 2015)
Substitutions are numbered along the chain they refer to. In names and notes the source's numbering stands. Entries after “also recorded” stand apart in the source; their conditions may differ.

Key:
[1] = Turnover number of atorvastatin oxidation by CYP102A1 enzymes (HPLC); type: biochemical; conditions: 80 μM atorvastatin, FIG. 13; for turnover number in oxidation of atorvastatin: 50 pmol enzyme, NADPH-generating system, 37° C., 30 minutes, production of 4-hydroxylated metabolite by HPLC
Method: It was examined whether the wild-type CYP102A1, the CYP102A1 mutants, and the chimeras derived from the CYP1.02A1 mutants may oxidize atorvastatin. Typical steady-state reactions was performed by adding 50 pmol CYP102A1 and 80 μM substrate to 0.25 ml of 100 mM potassium phosphate buffer solution (pH 7.4). In order to initiate reactions, the NADPH-generating system was added thereto (final concentrations: 10 mM glucose 6-phosphate, 0.5 mM NADP^+, and 1 IU […] per ml). A stock solution of atorvastatin (20 mM) was prepared in DMSO and diluted into the enzyme reaction solution to have a final organic solvent concentration of <1% (v/v).
In order to measure human CYP3A4 activity, 50 pmol P450, 100 pmol NADPH-P450 reductase (CPR), 100 pmol cytochrome b5, and 45 μM L-α-dilauroyl-sn-glycero-3-phosphocholine (DLPC) were used instead of 50 pmol CYP102A1. After the reaction solution was reacted for 30 minutes at 37° C., the reaction was terminated with 2-fold of ice-cold dichloromethane.
After centrifugation of the reaction mixture, a supernatant was removed and a solvent was evaporated under nitrogen gas and analyzed using HPLC. A sample (30 ul) was injected into Gemini C18 column (4.6 mm×150 mm, 5 um. Phenomenex. Torrance, Calif.). As a mobile phase A, water containing 0.1% formic acid/acetonitrile (80/20, v/v) was used, and as a mobile phase B, acetonitrile/0.1% formic acid (90/10, v/v) was used. The mobile phase A/B (70/30, v/v) was flowed at a rate of 1 ml·min^−1 using a gradient pump (LC-20AD, Shimadzu, Kyoto, Japan). Elution solutions were detected by UV at 260 nm.
In order to examine whether or not CYP102A1 (P450 BM3) may oxidize atorvastatin, the abilities of the wild-type CYP102A1 (P450 BM3), the mutants thereof, and the chimeras derived from the CYP102A1 mutants to oxidize atorvastatin were measured at a fixed substrate concentration (80 μM).
In order to recognize production rate of atorvastatin oxides by wild-type CYP102A1, CYP102A1 mutants, and chimeras derived from the CYP102A1 mutants, the turnover number was determined in the reaction using 80 μM statin.
The term “turnover number” means the number of substrate molecules that a molecule of an enzyme may convert into products per minute and indicates conversion frequency.
The production rate of 4-hydroxylated metabolite was determined by HPLC as described above.

[2] = Total turnover number (TTN) of atorvastatin oxidation; type: biochemical; conditions: reacted for 4 hours
Method: In order to recognize production rate of atorvastatin metabolites by the CYP102A1 mutant (#16 in Table 2) and the chimeras (#16A1V2 and #17A1V2) derived from the CYP102A1 mutants, total turnover numbers (TTNs; mol product/mol catalyst) were determined in reactions using total 240 μM atorvastatin.
The term “total turnover number (TTN)” means the number of substrate molecules converted into metabolites by enzymes for the total reaction time.
The total turnover numbers (TTNs) were determined by comparing the results under three conditions. First, the reaction was performed by adding a NADPH-generating system at 37° C. for 1 hour in the presence of 80 μM substrate. In addition, second, after reaction was performed for 1 hour in the presence of 80 μM substrate, 80 μM substrate was additionally added to the reaction mixture, and the reaction was further performed for 1 hour. Finally, after reaction was performed for 1 hour in the presence of 80 μM substrate, 80 μM substrate was additionally added to the reaction mixture, and the reaction was further performed for 1 hour. Then, 80 μM substrate was additionally added to the reaction mixture, and the reaction was further performed for 2 hours.
The production rate of the atorvastatin metabolites was determined using HPLC. […]

B1: Mutant #17: CYP102A1 mutant R47L/E64G/F81I/F87V/E143G/L188Q/E267V (SEQ ID NO 20) (protein)
chain: MTIKEMPQPKTFGELKNLPLLNTDKPVQALMKIADELGEIFKFEAPGLVTRYLSSQRLIKEACDGSRFDKNLSQALKFVRDIAGDGLVTSWTHEKNWKKAHNILLPSFSQQAMKGYHAMMVDIAVQLVQKWERLNADEHIEVPGDMTRLTLDTIGLCGFNYRFNSFYRDQPHPFITSMVRALDEAMNKQQRANPDDPAYDENKRQFQEDIKVMNDLVDKIIADRKASGEQSDDLLTHMLNGKDPETGEPLDDENIRYQIITFLIAGHVTTSGLLSFALYFLVKNPHVLQKAAEEAARVLVDPVPSYKQVKQLKYVGMVLNEALRLWPTAPAFSLYAKEDTVLGGEYPLEKGDELMVLIPQLHRDKTIWGDDVEEFRPERFENPSAIPQHAFKPFGNGQRACIGQQFALHEATLVLGMMLKHFDFEDHTNYELDIKETLTLKPEGFVVKAKSKKIPLGGIPSPSTEQSAKKVRKKVENAHNTPLLVLYGSNMGTAEGTARDLADIAMSKGFAPQVATLDSHAGNLPREGAVLIVTASYNGHPPDNAKQFVDWLDQASADDVKGVRYSVFGCGDKNWATTYQKVPAFIDETLAAKGAENIADRGEADASDDFEGTYEEWREHMWSDVAAYFNLDIENSEDNKSTLSLQFVDSAADMPLAKMHGAFSANVVASKELQQLGSERSTRHLEIALPKEASYQEGDHLGVIPRNYEGIVNRVTARFGLDASQQIRLEAEEEKLAHLPLGKTVSVEELLQYVELQDPVTRTQLRAMAAKTVCPPHKVELEALLEKQAYKEQVLAKRLTMLELLEKYPACEMEFSEFIALLPSISPRYYSISSSPHVDEKQASITVSVVSGEAWSGYGEYKGIASNYLANLQEGDTITCFVSTPQSGFTLPKDSETPLIMVGPGTGVAPFRGFVQARKQLKEQGQSLGEAHLYFGCRSPHEDYLYQEELENAQNEGIITLHTAFSRVPNQPKTYVQHVMERDGKKLIELLDQGAHFYICGDGSQMAPDVEATLMKSYADVYEVSEADARLWLQQLEEKGRYAKDVWAG
modifications: CYP102A1 mutant #17
- turnover number in oxidation of atorvastatin [1]: high turnover number

B2: #16A1V2: chimera: heme domain of mutant #16 fused to V2 reductase domain of Table 4 (SEQ ID NO 22) (protein)
chain: B1 chain with L48R, G65E, I82F, V88F, G144E, Q189L, V268E
modifications: chimera #16A1V2
- turnover number in oxidation of atorvastatin [1]: high turnover number; also recorded: most excellent turnover number
- activity compared with human CYP3A4 (turnover number) [1]: same activity as that of the human CYP3A4
- activity compared with human CYP3A4 (total turnover number) [2]: activity higher than that of the human CYP3A4

B3: Mutant #16: CYP102A1 mutant R47L/F81I/F87V/E143G/L188Q/E267V (SEQ ID NO 18) (protein)
chain: MTIKEMPQPKTFGELKNLPLLNTDKPVQALMKIADELGEIFKFEAPGLVTRYLSSQRLIKEACDESRFDKNLSQALKFVRDIAGDGLVTSWTHEKNWKKAHNILLPSFSQQAMKGYHAMMVDIAVQLVQKWERLNADEHIEVPGDMTRLTLDTIGLCGFNYRFNSFYRDQPHPFITSMVRALDEAMNKQQRANPDDPAYDENKRQFQEDIKVMNDLVDKIIADRKASGEQSDDLLTHMLNGKDPETGEPLDDENIRYQIITFLIAGHVTTSGLLSFALYFLVKNPHVLQKAAEEAARVLVDPVPSYKQVKQLKYVGMVLNEALRLWPTAPAFSLYAKEDTVLGGEYPLEKGDELMVLIPQLHRDKTIWGDDVEEFRPERFENPSAIPQHAFKPFGNGQRACIGQQFALHEATLVLGMMLKHFDFEDHTNYELDIKETLTLKPEGFVVKAKSKKIPLGGIPSPSTEQSAKKVRKKAENAHNTPLLVLYGSNMGTAEGTARDLADIAMSKGFAPQVATLDSHAGNLPREGAVLIVTASYNGHPPDNAKQFVDWLDQASADEVKGVRYSVFGCGDKNWATTYQKVPAFIDETLAAKGAENIADRGEADASDDFEGTYEEWREHMWSDVAAYFNLDIENSEDNKSTLSLQFVDSAADMPLAKMHGAFSTNVVASKELQQPGSARSTRHLEIELPKEASYQEGDHLGVIPRNYEGIVNRVTARFGLDASQQIRLEAEEEKLAHLPLAKTVSVEELLQYVELQDPVTRTQLRAMAAKTVCPPHKVELEALLEKQAYKEQVLAKRLTMLELLEKYPACEMKFSEFIALLPSIRPRYYSISSSPRVDEKQASITVSVVSGEAWSGYGEYKGIASNYLAELQEGDTITCFISTPQSEFTLPKDPETPLIMVGPGTGVAPFRGFVQARKQLKEQGQSLGEAHLYFGCRSPHEDYLYQEELENAQSEGIITLHTAFSRMPNQPKTYVQHVMEQDGKKLIELLDQGAHFYICGDGSQMAPAVEATLMKSYADVHQVSEADARLWLQQLEEKGRYAKDVWAG
modifications: CYP102A1 mutant#16
- turnover number in oxidation of atorvastatin [1]: high turnover number
